In paper PMC3852489:

Target: S377-588-Fc (residues 377-588 of MERS-CoV spike protein fused with human IgG Fc) (MERS-CoV) (UniProt K9N5Q8)
Experiment: SDS-PAGE of non-boiled against boiled sample

## S377-588-Fc (residues 377-588 of MERS-CoV spike protein fused with human IgG Fc) (from UniProt K9N5Q8 377-588) (Fc fusion)
  stoichiometry N: 2
